# Assay results from US20060193821, “Aptamers to the human IL-12 cytokine family and their use as autoimmune disease therapeutics” (published 2006).
# Positions count from the first letter of the chain named.
# B1: AMX86-E10 (ssRNA)
# RNA: GGGAAAAGCGAAUCAUACACAAGAUUGUCUCGGAUUGGUCACUCCCAUUUUUGUUCGCUUAACGGCUCCGCCAGAGACCAACCGAGAA
# modifications: 2'-F C,U
# B2: rRmY clone SEQ 77 (ssRNA)
# RNA: GGGAGAGGAGAGAACGUUCUACAACAAAGCAGGCUCAUAGUAAUAUGGAAGUCGCUGUCGAUCGAUCGAUCGAUG
# modifications: 2'-OMe C,U
# B3: AMX86-C5 (ssRNA)
# RNA: GGGAAAAGCGAAUCAUACACAAGAGUUUUAUGUGGGUCCCGAUGAUUAACUUUAUUGGCGCAUUGCUCCGCCAGAGACCAACCGAGAA
# modifications: 2'-F C,U
# B4: AMX86-F12 (ssRNA)
# RNA: GGGAAAAGCGAAUCAUACACAAGAGUGUUGAAUGAGCGCUGGUGGACAGAUCUUUGGUUACAGAGCUCCGCCAGAGACCAACCGAGAA
# modifications: 2'-F C,U
# B5: AMX86-A10 (ssRNA)
# RNA: GGGAAAAGCGAAUCAUACACAAGAGUAAUGUGGGUCCCGAUGAUUCGCUGUGCGGCGUUUGUAGCUCCGCCAGAGACCAACCGAGAA
# modifications: 2'-F C,U
# B6: rRmY clone SEQ 74 (ssRNA)
# RNA: GGGAGAGGAGAGAACGUUCUACGGUAAAGCAGGCUGACUGAAAGGUUGAAGUCGCUGUCGAUCGAUCGAUCGAUG
# modifications: 2'-OMe C,U
# B7: rRmY clone SEQ 72 (ssRNA)
# RNA: GGGAGAGGAGAGAACGUUCUACAAAUGAGAGCAGGCCGAAAAGGAGUCGCUCGCUGUCGAUCGAUCGAUCGAUG
# modifications: 2'-OMe C,U
# B8: rRmY clone SEQ 81 (ssRNA)
# RNA: B7 RNA with A23G
# modifications: 2'-OMe C,U
# B9: AMX86-B7 (ssRNA)
# RNA: GGGAAAAGCGAAUCAUACACAAGAAUGAAUUCCGUCCACGGGCGCCCGAUGAUGUCAGUUUUCGGCUCCGCCAGAGACCAACCGAGAA
# modifications: 2'-F C,U
# B10: rRmY clone SEQ 84 (ssRNA)
# RNA: GGGAGAGGAGAGAACGUUCUACGGAAAAAGAUAUGAAAGAAAGGAUUAAGAGACGCUGUCGAUCGAUCGAUCGAUG
# modifications: 2'-OMe C,U
# B11: AMX86-A7 (ssRNA)
# RNA: GGGAAAAGCGAAUCAUACACAAGAUCUCUUUGGCCGACGCAACAAUGCUCUUUUCCGACCUUGCGCUCCGCCAGAGACCAACCGAGAA
# modifications: 2'-F C,U
# B12: AMX86-A11 (ssRNA)
# RNA: GGGAAAAGCGAAUCAUACACAAGAACGGCUAGGCAUCAAUGGCCAGCAAAAAUAGUCGUGUAAUGCUCCGCCAGAGACCAACCGAGAA
# modifications: 2'-F C,U
# B13: AMX86-B10 (ssRNA)
# RNA: GGGAAAAGCGAAUCAUACACAAGAGAACGAGUAUAUUUGCGCUGGCGGAGAAGUCUCUCGAAGGGAGCUCCGCCAGAGACCAACCGAGAA
# modifications: 2'-F C,U
# B14: rRmY clone SEQ 86 (ssRNA)
# RNA: GGGAGAGGAGAGAACGUUCUACUAAUGCAGGCUCAGUUACUACUGGAAGUCGCUGUCGAUCGAUCGAUCGAUG
# modifications: 2'-OMe C,U
# B15: rRmY clone SEQ 79 (ssRNA)
# RNA: GGGAGAGGAGAGAACGUUCUACAAAAGGCAGGCUCAGGGGAUCACUGGAAGUCGCUGUCGAUCGAUCGAUCGAUG
# modifications: 2'-OMe C,U
# B16: AMX86-F11 (ssRNA)
# RNA: GGGAAAAGCGAAUCAUACACAAGACCAUCGGACGAGGCGGGUCACCUUUUACGCUUUCGAGCUGGCUCCGCCAGAGACCAACCGAGAA
# modifications: 2'-F C,U
# B17: AMX86-C9 (ssRNA)
# RNA: GGGAAAAGCGAAUCAUACACAAGACUCAUGGAUAUGGCCUAGCAGCCGUGGAAGCGGUCAUUCUGCUCCGCCAGAGACCAACCGAGAA
# modifications: 2'-F C,U
# B18: rRmY clone SEQ 75 (ssRNA)
# RNA: GGGAGAGGAGAGAACGUUCUACAGGUUAAGAGCAGGCUCAGGAAUGGAAGUCGCUGUCGAUCGAUCGAUCGAUG
# modifications: 2'-OMe C,U
# B19: rRmY clone SEQ 82 (ssRNA)
# RNA: GGGAGAGGAGAGAACGUUCUACGAGAGGCAAGAGAGAGUCGCAUAAAAAAGACGCUGUCGAUCGAUCGAUCGAUG
# modifications: 2'-OMe C,U
# B20: AMX91-H8 (ssRNA)
# RNA: GGGAAAAGCGAAUCAUACACAAGAACGCAUAGUCGGAUUUACCGAUCAUUCUGUGCCUUCGUGACGCUCCGCCAGAGACCAACCGAGAA
# modifications: 2'-F C,U
# B21: AMX86-B11 (ssRNA)
# RNA: GGGAAAAGCGAAUCAUACACAAGAGUAUCAUUCGGCUGGUGGGAGAAAUCUCUGUAGAUAUAGAGCUCCGCCAGAGACCAACCGAGAA
# modifications: 2'-F C,U
# Assays:
# [1] = biological target: T1, IL-23 (human, p19/p40 heterodimer) (Homo sapiens, UniProt Q9NPF7;P29460 SEQ:20-189,SEQ:23-328); assay: filter; SHMCK, tRNA; conditions: tags: R&D Systems, carrier free
# T1 sequence (Q9NPF7 20-189, chain 1 of 2): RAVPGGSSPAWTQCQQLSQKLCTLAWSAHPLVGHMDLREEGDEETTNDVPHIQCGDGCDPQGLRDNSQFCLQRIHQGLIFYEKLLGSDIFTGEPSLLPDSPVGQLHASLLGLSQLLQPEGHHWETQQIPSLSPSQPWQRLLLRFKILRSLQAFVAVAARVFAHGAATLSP
# T1 sequence (P29460 23-328, chain 2 of 2): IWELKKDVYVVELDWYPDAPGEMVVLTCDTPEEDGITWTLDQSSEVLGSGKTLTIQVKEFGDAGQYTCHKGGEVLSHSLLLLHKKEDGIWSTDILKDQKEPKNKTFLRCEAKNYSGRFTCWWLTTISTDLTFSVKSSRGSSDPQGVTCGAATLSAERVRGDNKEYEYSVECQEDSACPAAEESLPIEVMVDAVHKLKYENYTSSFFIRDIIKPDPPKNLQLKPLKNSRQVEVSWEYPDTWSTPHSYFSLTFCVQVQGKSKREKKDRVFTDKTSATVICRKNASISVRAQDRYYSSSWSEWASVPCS
# How it was run: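 Trace ³²P-labeled RNA incubated with a dilution series of h-IL-23 for 30 min at room temperature in 1×SHMCK (pH 7.4, 1 mM MgCl₂, 1 mM CaCl₂) plus 0.1 mg/mL tRNA. Bound RNA captured on nitrocellulose, free RNA on nylon; quantified by phosphorimaging. Clone screens used single points of 75, 100 or 200 nM IL-23 or IL-12.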
# [2] = biological target: IL-12 (human, p35/p40 heterodimer) (Homo sapiens, UniProt P29459;P29460 SEQ:57-253,SEQ:23-328); assay: filter; tRNA
# Sequence of IL-12 (human, p35/p40 heterodimer) (P29459 23-219, chain 1 of 2): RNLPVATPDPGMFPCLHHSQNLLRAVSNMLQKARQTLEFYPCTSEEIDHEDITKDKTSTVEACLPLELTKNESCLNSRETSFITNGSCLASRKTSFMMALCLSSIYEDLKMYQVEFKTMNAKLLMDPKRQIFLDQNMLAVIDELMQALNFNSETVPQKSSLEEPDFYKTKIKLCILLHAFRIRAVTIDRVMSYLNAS
# Sequence of IL-12 (human, p35/p40 heterodimer) (P29460 23-328, chain 2 of 2): as the sequence (P29460 23-328, chain 2 of 2) above
# Procedure: Monitoring Progress of rRfY Selection. Dot blot binding assays were performed throughout the selections to monitor the protein binding affinity of the pools. Trace ³²P-labeled RNA was combined with a dilution series of h-IL-23 and incubated at room temperature for 30 minutes in 1×SHMCK (20 mM Hepes, 120 mM NaCl, 5 mM KCl, 1 mM MgCl₂, 1 mM CaCl₂, pH 7.4) plus 0.1 mg/mL tRNA for a final volume of 20 μL. The binding reactions were analyzed by nitrocellulose filtration using a Minifold I dot-blot, 96-well vacuum filtration manifold (Schleicher & Schuell, Keene, N.H.). A three-layer filtration medium was used, consisting (from top to bottom) of Protran nitrocellulose (Schleicher & Schuell), Hybond-P nylon (Amersham Biosciences) and GB002 gel blot paper (Schleicher & Schuell). RNA that is bound to protein is captured on the nitrocellulose filter, whereas the non-protein bound RNA is captured on the nylon filter. The gel blot paper was included simply as a supporting medium for the other filters. Following filtration, the filter layers were separated, dried and exposed on a phosphor screen (Amersham Biosciences, Piscataway, N.J.) and quantified using a Storm 860 Phosphorimager® blot imaging system (Amersham Biosciences).
# When a significant positive ratio of binding of RNA in the presence of h-IL-23 versus in the absence of h-IL-23 was seen, the pools were cloned using a TOPO TA cloning kit (Invitrogen, Carlsbad, Calif.) according to the manufacturer's instructions. For the h-IL-23 and X-IL-23 selections, the Round 8 pool templates were cloned, and 32 individual clones from each selections were assayed in a 1-point dot blot screen (+/−75 nM h-IL-23, as well as a separate screen at +/−75 nM h-IL-12). For the PN-IL-23 selection, the Round 10 pool was cloned and sequenced, and 8 unique clones were assayed for protein binding in a 1-point dot blot screen (+/−200 nM h-IL-23 and a separate screen at +/−200 nM h-IL-12). Subsequently, the Round 10 PN-IL-23 pool was re-cloned for further sequences, as well as the R12 PN-IL-23 pool, and the clones were assayed for protein binding in a 1 point do blot screen (+/−100 nM h-IL-23 or +/−200 nM h-IL-12).
# [3] = biological target: T1, IL-23 (human, p19/p40 heterodimer); assay: filter; DPBS Ca Mg; conditions: tags: R&D Systems, carrier free
# Procedure: The selection progress was monitored using the dot blot sandwich filter binding assay as described in Example 1A. The 5′-³²P-labeled pool RNA was refolded at 90° C. for 3 minutes and cooled to room temperature for 10 minutes. Next, pool RNA (trace concentration) was incubated with h-IL-23 DPBS plus 0.1 mg/mL tRNA for 30 minutes at room temperature and then applied to a nitrocellulose and nylon filter sandwich in a dot blot apparatus (Schleicher and Schuell). The percentage of pool RNA bound to the nitrocellulose was calculated and monitored approximately every 3 rounds with a single point screen (+/−250 nM h-IL-23). Pool KD measurements were measured using a titration of h-IL-23 protein (R&D, Minneapolis, Minn.) and the dot blot apparatus as described above.
# The rRmY h-IL-23 selection was enriched for h-IL-23 binding vs. the naïve pool after 4 rounds of selection (data not shown). The selection stringency was increased and the selection was continued for 8 more rounds. […] The rGmH selection was enriched over the naïve pool binding at Round 10. […] FIG. 7 is a binding curve of rRmY and rGmH pool selection binding to h-IL-23. The pools were cloned using TOPO TA cloning kit (Invitrogen, Carlsbad, Calif.) and individual sequences were generated and tested for binding. A single point binding screen was initially performed on all crude rRmY clone transcriptions using a 1:200 dilution, +/−200 nM IL-23, plus 0.1 mg/mL competitor tRNA. […] The 10 point screen was performed using zero to 480 nM IL-23 in 3 fold serial dilutions. Binding curves were generated (KaleidaGraph v. 3.51, Synergy Software) and KDs were estimated by fitting the data to the equation: fraction RNA bound=amplitude[h-IL-23]/KD+[h-IL-23]). […] There was one group of 6 duplicate sequences and 4 pairs of 2 duplicate sequences out of the rRmY clones generated. […] Clones were also tested from 48 crude rGmH clone transcriptions at a 1:200 dilution and 0.1 mg/mL tRNA was used as competitor.
Binder,Kd [1] [nM],Kd [2] [nM],Kd [3] [nM]
B1,218,905,
B2,,,259
B3,80.3,400,
B4,424,2910,
B5,461,289,
B6,,,257
B7,,,211
B8,,,303
B9,111,934,
B10,,,602
B11,57.7,668,
B12,157,182,
B13,77.8,1040,
B14,,,219
B15,,,807
B16,256,541,
B17,97.9,673,
B18,,,479
B19,,,199
B20,16.6,243,
B21,180,5950,
